Numbered stars: 1 amine (or outer) side, 2 acyl side, 3 side chain; on linkers, the order of the positions; unused ones are H or OH. Bridge positions count the residues as written; N and C are the ends. Square brackets hold non-standard residues; d marks the D form. Triazole bridges read from a SMILES are 1,4-linked. Ends that are not written are not given here. Peptide text beside a SMILES is read from it. * marks the point of attachment. DOTA = O=C(O)CN1CCN(CC(=O)O)CCN(CC(=O)*)CCN(CC(=O)O)CC1; Pteroyl = Nc1nc2ncc(CNc3ccc(C(=O)*)cc3)nc2c(=O)[nH]1; Butanoyl(4-(4-MePh)) = Cc1ccc(CCCC(=O)*)cc1; Lys(N3) = [N-]=[N+]=NCCCC[C@H](N)C(=O)O; γGlu = O=C(O)[C@H](CCC(=O)[*:2])N[*:1]; X3 = O=C(CO/N=C/c1ccc(F)cc1)*; AEEEA = NCCOCCOCCOCC(=O)O; Pra = C#CC[C@H](N)C(=O)O; X2 = NOCC(=O)*

Five compounds from US11733246B2, “Compositions, imaging, and therapeutic methods targeting folate receptor 1 (FOLR1)” (Indi Molecular, Inc., priority 2020, dated 2023) can be followed below.

Data set [1] in a line: Plasma protein binding (equilibrium dialysis), mouse. It counts as in vitro ADME, CD-1 mouse. The protocol: (§1) HTD 96 a/b regenerated cellulose membrane strips with mass cutoff of 12-14 kDa were soaked in ultra-pure water at room temperature for 1 hour. Each swelled membrane was then soaked in 20:80 ethanol:water for 20 minutes.
(§2) Just prior to the experiment, the membranes were re-soaked in ultra-pure water. Plasma was prepared by thawing under cold water. The plasma was centrifuged to remove any clots and pH was adjusted to 7.0-8.0. Test articles and control compounds were diluted to 2 μM. The dialysis device was loaded by transferring 150 μL of the test article (in triplicate) to the donor side. The dialysis device was placed in a humidified incubator at 37° C. with 5% CO2 in a shaking platform that rotated slowly for 4 hours. After incubation, 50 μL of the supernatant was taken from both sides and analyzed by LC-MS/MS.
(§3) To optimize the albumin binding potential of the heterobiligand, a plasma protein binding (PPB) experiment was performed. This experiment measured the amount of test article bound and free after equilibrating with plasma. Compound #6305 (folate-hshta-Lys(MPBA)-Gly-Phe-Lys(DOTA) (SEQ ID NO:6)), which contains the MPBA albumin binder, was 96.26% bound to mouse plasma and 98.34% bound to human plasma. […] In mouse and human plasmas 99.6% and 99.5% was bound, respectively.
On the technique in general: Equilibrium dialysis compares concentrations on both sides of a semipermeable membrane.

A short description of another data set: Plasma stability, mouse. The note with it: Mu.
The next data set can be described thus: Plasma stability, human. The note with it: Hu.
Data set [2] can be described thus: Plasma protein binding (equilibrium dialysis), human. The class given is in vitro ADME. The protocol:
as §1, §2, §3

Another data set concerns the target human recombinant NEP (Homo sapiens, UniProt P08473). The class given is biochemical. The protocol: In order to test the susceptibility of GFK and MVK linkers to NEP-mediated cleavage, the peptide (Folate-hshta-Lys(MPBA)-Gly-Phe-Lys(DOTA) (SEQ ID NO:6)) was incubated with human recombinant NEP and analyzed the solution for the presence of cleaved adducts. MALDI was utilized to monitor the cleavage of a PCC heterobiligand that contains a NEP protease recognizable sequence (G-F-K). The PCC concentration was constant and the NEP concentration was titrated down from 10 nM to 1 nM, 0.1 nM, 0.01 nM, and no NEP. The NEP-mediated cleaved adduct was identified by mass. 10 μM PCC containing the GFK linker was combined with varying amounts of NEP. […] Below 0.1 nM no cleavage was observed. • Folate-hshta-Lys(MPBA)-Gly-Phe-Lys(DOTA) (SEQ ID NO:6) • Molecular weight 2231.42
The NEP-mediated cleavage was also monitored by HPLC. In agreement with the MALDI spectra, the HPLC chromatograms show depletion of the parent brush-border heterobiligand (retention time 17.1 minutes), dose-dependent on the amount of NEP spiked into the sample (10 nM, 1 nM, 0.1 nM, 0.01 nM, and no NEP). An appearance of a new peak (retention time 16.5 minutes) in concert with the depletion of the starting material is presumed to be the cleaved folate-containing peptide.
In order to test the specificity of NEP, a non-cleavable linker (PEG3) was also assayed.
To reduce the radioactive dose to the kidney, Indi ^177Lu-7327 was constructed to incorporate a GFK linker that is susceptible to cleavage by enzymes found predominately in the kidney's brush border. These enzymes cleave off the radionuclide-chelator complex, which is quickly eliminated by the kidney for excretion in the urine. The zinc metalloprotease neprilysin (NEP) is expressed with high abundance in the kidney. […] To confirm NEP-mediated cleavage of the GFK linker in Indi 7327, the peptide was incubated with recombinant human NEP at 37° C. for 1 h and analyzed by matrix-assisted laser desorption/ionization mass spectrometry (MALDI-MS) for the evolution of cleaved adducts (FIG. 42). […] The expected cleaved adduct (mass: 1283.16 m/z) appears in the samples containing 10, 1.0, and 0.1 nM NEP. […] Below 0.1 nM NEP, no cleavage was observed. In addition to confirming the selectivity of NEP for the GFK linker, it is also important to note that the remaining portions of the Indi 7327 were impervious to the enzyme.

A further data set in a line: in vivo. The note with it: female, NSG, mouse, iv, total radioactivity. The protocol: (§4) Female, 7-week-old NSG mice were housed under pathogen-free conditions. Water and food were provided ad libitum. To create mice with FOLR1+ ovarian xenograft tumors, mice were injected subcutaneously with OVCAR3 cells (1×10^7 cells per mouse) resuspended in 50% Matrigel in PBS into the shoulder region. Tumor growth was monitored by caliper measurements. OVCAR3 is a human ovarian adenocarcinoma known to over-express FOLR1.
(§5) ^68Ga PET imaging was used to study in vivo biodistribution of heterobiligands in non-tumor bearing (healthy) mice and OVCAR3 tumor bearing mice. 100-200 μCi of [^68Ga]DOTA-labeled heterobiligand was administered intravenously (i.v.) via the tail vein of each mouse. Dynamic PET imaging was performed from 0-1 h, followed by acquisition of static PET images at 2 h and 4 h post-injection. CT scans were acquired for anatomical reference. Imaging was performed on an Inveon microPET/CT small animal scanner. The PET signal was quantitated by three-dimensional ROI analysis and represented as percent injected dose (% ID) vs. time ([…]) for major organs including tumor, liver, heart, lung, bladder, and kidney.
(§6) Evaluation of a folate-hshta (SEQ ID NO:6) Nterm heterobiligand bearing both an albumin binder and DOTA chelator in PET was a priority, given that DOTA can accommodate both ^68Ga for imaging and ^177Lu for radiotherapy. A 200 μCi dose of ^68Ga-labeled folate-hshta-PEG3-Lys(MPBA)-Lys(DOTA) (SEQ ID NO:6) (compound #2809) was injected i.v. via tail vein in an NSG mouse bearing s.c. human OVCAR3 (FOLR1+) tumor. ^68Ga PET/CT imaging scans were performed at 0-1 h (dynamic), 2 h (static), and 4 h (static). […] The time-course biodistribution of ^68Ga-labeled folate-hshta-PEG3-Lys(MPBA)-Lys(DOTA) (SEQ ID NO:6) (compound #2809) was calculated to quantify the uptake in major organs including the tumor (FIG. 17). […] Larger tumors (490 mm^3) were also evaluated with the ^68Ga-chelated PET probe.
(§7) Images were captured for compound #1307 at the time points 5 min, 10 min, 15 min, 30 min, 1 h, 2 h, and 4 h. PET/CT images were taken following the injection of 4 female NSG mice with ^68Ga-chelated compound #2809. […] Images for mouse 4 are shown in FIG. 23 (Compounds #1307 and #2809) and FIG. 24 (Compound #1307).
(§8) Biodistribution was initially evaluated by PET imaging, as the time frame for a significant portion of clearance is roughly similar to the time frame of PET imaging experiments. Indi ^68Ga-7327 was injected via the tail vein into OVCAR3 (FOLR+) tumor implanted female NSG mice once the tumor size reached 200 mm^3, and microPET/CT scans were acquired at 5 min, 10 min, 15 min, 30 min, 1 h, 2 h, and 4 h post-injection. PET images were corrected for CT-based photon attenuation, detector normalization and radioisotope decay and converted to units of percent injected dose per cc (% ID/cc).

For a further data set, the system named is OVCAR3 (FOLR+) cells. The data set is described as follows: Fluorescence microscopy / live cell imaging of dye-labeled heterobiligand. It counts as cell-based, human. The settings on record: DyLight 650 label, OVCAR3 vs PC3. The source says:
To further understand intracellular trafficking of the Nterm heterobiligand, these dye-labeled compounds were imaged by fluorescence microscopy. The cells were counterstained with BioTracker 490, which stains membranes, and Rab5a+, an endosomal stain. […] Low levels of DyLight650 was detected within PC-3 (FOLR1−) cells. Taken together, internalization of the heterobiligand appears to be receptor driven and selective for FOLR1 (+) cells.
(§9) Nonclinical studies were first conducted with Folate-hshta-PEG10-PEG10-K(Biotin), where Folate-hshta is the targeting heterobiligand, PEG10 is a deca(ethylene glycol) linker, and K(Biotin) is the detection label. […] Cross reactivity with the murine folate receptor was also observed. […] In the merged image, purple puncta were observed indicating co-localization of internalized heterobiligand with early endosomes (Rab5a+ vesicles) in OVCAR3 cells.

The subject of a further data set is OVCAR3 cells. The data set is described as follows: Cell internalization assay (acid wash, flow cytometry). The class given is cell-based, human. The settings on record: OVCAR3 cell line. How it is done:
FIG. 10 is a diagram of an assay for assessing cell internalization FOLR1 heterobiligands.
The folate-hshta (SEQ ID NO:6) Nterm heterobiligand was also evaluated in cell penetration imaging assays (FIG. 10). OVCAR3 and PC-3 cells were incubated with the test article at 37° C. for 1 hour. Flow cytometry analysis of the resulting treated cells indicated strong binding to FOLR1 (+) cells. To understand the proportion bound to the surface but not internalized, the cells were briefly washed with acid to liberate the non-internalized peptide.
as §9

The subject of data set [3] is OVCAR3 (FOLR1+) tumor bearing NSG mice. The data set is described as follows: in vivo. The note with it: mouse. The protocol:
as §4, §5, §6, §7, §8

human recombinant NEP, sequence (P08473 whole entry): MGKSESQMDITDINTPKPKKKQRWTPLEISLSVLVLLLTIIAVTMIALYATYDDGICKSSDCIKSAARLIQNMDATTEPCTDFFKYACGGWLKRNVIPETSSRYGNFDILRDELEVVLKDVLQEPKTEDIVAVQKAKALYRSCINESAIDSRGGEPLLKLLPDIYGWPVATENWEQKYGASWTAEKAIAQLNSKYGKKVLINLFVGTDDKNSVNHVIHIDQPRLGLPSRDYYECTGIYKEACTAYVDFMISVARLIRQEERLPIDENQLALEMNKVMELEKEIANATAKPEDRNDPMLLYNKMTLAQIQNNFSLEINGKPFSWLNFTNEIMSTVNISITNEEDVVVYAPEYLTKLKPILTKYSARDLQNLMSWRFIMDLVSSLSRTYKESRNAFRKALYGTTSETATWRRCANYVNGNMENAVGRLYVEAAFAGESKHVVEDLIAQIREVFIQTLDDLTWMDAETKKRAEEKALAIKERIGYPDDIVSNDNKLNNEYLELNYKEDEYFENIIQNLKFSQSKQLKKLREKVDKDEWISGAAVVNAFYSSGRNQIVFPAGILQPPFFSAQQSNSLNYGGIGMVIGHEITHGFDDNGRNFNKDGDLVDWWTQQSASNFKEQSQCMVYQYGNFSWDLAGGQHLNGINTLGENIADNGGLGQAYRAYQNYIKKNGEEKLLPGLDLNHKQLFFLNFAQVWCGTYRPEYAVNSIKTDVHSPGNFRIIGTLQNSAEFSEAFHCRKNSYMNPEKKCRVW
Protocol for Plasma stability, human: (§10) Plasma was thawed in a 37° C. water bath. Residual clots were removed via centrifugation at 4000 rpm for 5 minutes. The pH of the plasma was adjusted to 7.4 if required. Test articles were diluted to 100 μM by diluting a 1 mM working solution (in DMSO) with 45% methanol in water. To 98 μL of plasma was added 2 μL of the 100 μM solution, resulting in 2 μM final concentration of the test article. Samples were incubated at 37° C. in a water bath. At the indicated time points (0, 10, 30, 60, 120 minutes) 100 μL of 4% H3PO4 was added followed by 800 μL of stop solution (200 ng/mL tolbutamide and 200 ng/mL labetalol in 100% acetonitrile). The samples were centrifuged and the plasma protein-free supernatant (100 μL) was subjected to LC-MS/MS analysis.
Protocol for Plasma stability, mouse: as §10

With `C[C@H](O)[C@H]1NC(=O)[C@@H](Cc2c[nH]cn2)NC(=O)[C@@H](CO)NC(=O)[C@@H](Cc2c[nH]cn2)NC(=O)[C@@H](NC(=O)CC[C@H](NC(=O)c2ccc(NCc3cnc4nc(N)[nH]c(=O)c4n3)cc2)C(=O)O)Cc2cn(nn2)CCCC[C@@H](C(=O)NCCOCCOCCOCC(=O)N[C@@H](CCCCNC(=O)CO/N=C/c2ccc(F)cc2)C(N)=O)NC(=O)[C@@H](C)NC1=O` [compound #2, Fol-hshta-PEG3-Lys(FB)] ({Pteroyl-γGlu}-[Pra][dH][dS][dH][dT][dA][Lys(N3)][AEEEA]K(X3)-NH2; triazole 1-7), the recovery in [1] is 115%; in data set [2], 85%. The fraction unbound in data set [1] (mouse, plasma) turned out to be 0.798; in data set [2] (human, plasma), 0.57. The half-life in “Plasma stability, mouse” (mouse, Plasma Stability (t 1/2), 2 μM, 37° C.) was more than 4.82 h; in “Plasma stability, human” (Plasma Stability (t 1/2), 2 μM, 37° C.) it was more than 4.82 h.
On to `C[C@H](O)[C@H]1NC(=O)[C@@H](Cc2cnc[nH]2)NC(=O)[C@@H](CO)NC(=O)[C@@H](Cc2cnc[nH]2)NC(=O)[C@@H](NC(=O)CC[C@H](NC(=O)c2ccc(NCc3cnc4nc(N)[nH]c(=O)c4n3)cc2)C(=O)O)Cc2cn(nn2)CCCC[C@@H](C(=O)NCC(=O)N[C@@H](Cc2ccccc2)C(=O)N[C@@H](CCCCNC(=O)CON)C(=O)O)NC(=O)[C@@H](C)NC1=O` [compound 3303, Fol-hshta-Gly-Phe-Lys(AO)] ({Pteroyl-γGlu}-[Pra][dH][dS][dH][dT][dA][Lys(N3)]GFK(X2)-OH; triazole 1-7), for which the half-life at 2 μM in “Plasma stability, mouse” (CD-1, mouse, pH 7.4, Plasma Stability (t 1/2), AO construct marked (FB)) was more than 116 h; in the data set “Plasma stability, human” (pH 7.4, Plasma Stability (t 1/2), AO construct marked (FB)), more than 116 h. In the data set with human recombinant NEP, the “in vitro Assay Data (NEP assay)” value is given as “Cleavage of -G-F-K-”.
For the compound `Cc1ccc(CCCC(=O)NCCCC[C@H](NC(=O)COCCOCCOCCNC(=O)[C@@H]2CCCCn3cc(nn3)C[C@H](NC(=O)CC[C@H](NC(=O)c3ccc(NCc4cnc5nc(N)[nH]c(=O)c5n4)cc3)C(=O)O)C(=O)N[C@H](Cc3c[nH]cn3)C(=O)N[C@H](CO)C(=O)N[C@H](Cc3c[nH]cn3)C(=O)N[C@H]([C@H](C)O)C(=O)N[C@H](C)C(=O)N2)C(=O)N[C@@H](CCCCNC(=O)CN2CCN(CC(=O)O)CCN(CC(=O)O)CCN(CC(=O)O)CC2)C(N)=O)cc1` [^68Ga-chelated compound #2809, metal not drawn] ({Pteroyl-γGlu}-[Pra][dH][dS][dH][dT][dA][Lys(N3)][AEEEA]K(Butanoyl(4-(4-MePh)))K(DOTA)-NH2; triazole 1-7), the tissue uptake per volume at 4 h in “in vivo” (200 uCi, dose accumulation in the tumor) is approximately 1.4 %ID/mL.
For the compound “heterobiligand labeled with DyLight 650: folate-hshta Nterm heterobiligand labeled with the dye DyLight 650 ([dH][dS][dH][dT][dA]; not fully specified (N-terminus); printed as hshta; also: labeled with DyLight 650, place not given here, heterobiligand)”, the “internalization / intracellular localization” value with OVCAR3 (FOLR+) cells was “internalization with clear preference for early endosomes”; in the data set with OVCAR3 (FOLR+) cells (listed as DyLight650-labeled peptide-folate heterobiligand), “Selective internalization into OVCAR3 (FOLR+) cells”. In addition, in the data set on OVCAR3 cells, the “internalized fraction in acid wash (pH 3.0) assay” value is on record as “high percentage”.
Regarding `C[C@H](O)[C@H]1NC(=O)[C@@H](Cc2cnc[nH]2)NC(=O)[C@@H](CO)NC(=O)[C@@H](Cc2cnc[nH]2)NC(=O)[C@@H](NC(=O)CC[C@H](NC(=O)c2ccc(NCc3cnc4nc(N)[nH]c(=O)c4n3)cc2)C(=O)O)Cc2cn(nn2)CCCC[C@@H](C(=O)NCC(=O)N[C@@H](Cc2ccccc2)C(=O)N[C@@H](CCCCNC(=O)CN2CCN(CC(=O)O)CCN(CC(=O)O)CCN(CC(=O)O)CC2)C(=O)O)NC(=O)[C@@H](C)NC1=O` [Indi ^68Ga-7327, metal not drawn] ({Pteroyl-γGlu}-[Pra][dH][dS][dH][dT][dA][Lys(N3)]GFK(DOTA)-OH; triazole 1-7), in [3], the kidney uptake result was “significant reduction in kidney uptake”. Moreover, the tissue uptake per volume at 4 h in the data set “in vivo” (accumulation in the tumor) came to 1.55 %ID/mL.

As a reminder, the fraction unbound is free concentration divided by total concentration. The low end stands for little free substance, the high end for much free substance. By half-life is commonly meant the time needed for the level to fall by half in the phase considered.
